Substrate: O=C(O)CC(C(=O)O)C(O)C(=O)O
Experiment: purified protein
Assay type: biochemical, Homo sapiens
Conditions: no activators, 2 mM Mn2+, 3.2 mM NAD, 33 mM Tris-acetate pH 7.4, 25 °C, Hill 2.0, racemic DL-ICT varied

Row | Protein | K0.5 (Hill 1.0) | kcat/Km (Hill 1.0) | K0.5 (Hill 1.1) | kcat/Km (Hill 1.1)
1 | αγ heterodimer of human NAD-IDH (IDH3) (Homo sapiens; P51553:R136A) (protein, alpha and gamma co-expressed in E. coli BL21(DE3) from pQlinkN; gamma C-terminal TEV-His6, His6 cleaved by TEV; 80 kDa heterodimer (dimer of heterodimers at high concentration)) chain 1: TGGVQTVTLIPGDGIGPEISAAVMKIFDAAKAPIQWEERNVTAIQGPGGKWMIPSEAKESMDKNKMGLKGPLKTPIAAGHPSMNLLLRKTFDLYANVRPCVSIEGYKTPYTDVNIVTIRENTEGEYSGIEHVIVDGVVQSIKLITEGASKRIAEFAFEYARNNHRSNVTAVHKANIMRMSDGLFLQKCREVAESCKDIKFNEMYLDTVCLNMVQDPSQFDVLVMPNLYGDILSDLCAGLIGGLGVTPSGNIGANGVAIFESVHGTAPDIAGKDMANPTALLLSAVMMLRHMGLFDHAARIEAACFATIKDGKSLTKDLGGNAKCSDFTEEICRRVKDLD chain 2: FSEQTIPPSAKYGGRHTVTMIPGDGIGPELMLHVKSVFRHACVPVDFEEVHVSSNADEEDIRNAIMAIRRNRVALKGNIETNHNLPPSHKSRNNILATSLDLYANVIHCKSLPGVVTRHKDIDILIVRENTEGEYSSLEHESVAGVVESLKIITKAKSLRIAEYAFKLAQESGRKKVTAVHKANIMKLGDGLFLQCCREVAARYPQITFENMIVDNTTMQLVSRPQQFDVMVMPNLYGNIVNNVCAGLVGGPGLVAGANYGHVYAVFETATRNTGKSIANKNIANPTATLLASCMMLDHLKLHSYATSIRKAVLASMDNENMHTPDIGGQGTTSEAIQDVIRHIRVINGRAVEA | 4.51 ± 0.43 mM | 330 ± 10 M⁻¹ s⁻¹ |  | 
2 | αγ heterodimer of human NAD-IDH (IDH3) (Homo sapiens; P51553:K190A) (protein, alpha and gamma co-expressed in E. coli BL21(DE3) from pQlinkN; gamma C-terminal TEV-His6, His6 cleaved by TEV; 80 kDa heterodimer (dimer of heterodimers at high concentration)) chain 1: TGGVQTVTLIPGDGIGPEISAAVMKIFDAAKAPIQWEERNVTAIQGPGGKWMIPSEAKESMDKNKMGLKGPLKTPIAAGHPSMNLLLRKTFDLYANVRPCVSIEGYKTPYTDVNIVTIRENTEGEYSGIEHVIVDGVVQSIKLITEGASKRIAEFAFEYARNNHRSNVTAVHKANIMRMSDGLFLQKCREVAESCKDIKFNEMYLDTVCLNMVQDPSQFDVLVMPNLYGDILSDLCAGLIGGLGVTPSGNIGANGVAIFESVHGTAPDIAGKDMANPTALLLSAVMMLRHMGLFDHAARIEAACFATIKDGKSLTKDLGGNAKCSDFTEEICRRVKDLD chain 2: FSEQTIPPSAKYGGRHTVTMIPGDGIGPELMLHVKSVFRHACVPVDFEEVHVSSNADEEDIRNAIMAIRRNRVALKGNIETNHNLPPSHKSRNNILRTSLDLYANVIHCKSLPGVVTRHKDIDILIVRENTEGEYSSLEHESVAGVVESLAIITKAKSLRIAEYAFKLAQESGRKKVTAVHKANIMKLGDGLFLQCCREVAARYPQITFENMIVDNTTMQLVSRPQQFDVMVMPNLYGNIVNNVCAGLVGGPGLVAGANYGHVYAVFETATRNTGKSIANKNIANPTATLLASCMMLDHLKLHSYATSIRKAVLASMDNENMHTPDIGGQGTTSEAIQDVIRHIRVINGRAVEA |  |  | 8.12 ± 0.16 mM | 90 ± 2 M⁻¹ s⁻¹
3 | αγ heterodimer of human NAD-IDH (IDH3) (Homo sapiens; P50213:Y255F) (protein, alpha and gamma co-expressed in E. coli BL21(DE3) from pQlinkN; gamma C-terminal TEV-His6, His6 cleaved by TEV; 80 kDa heterodimer (dimer of heterodimers at high concentration)) chain 1: TGGVQTVTLIPGDGIGPEISAAVMKIFDAAKAPIQWEERNVTAIQGPGGKWMIPSEAKESMDKNKMGLKGPLKTPIAAGHPSMNLLLRKTFDLYANVRPCVSIEGYKTPYTDVNIVTIRENTEGEYSGIEHVIVDGVVQSIKLITEGASKRIAEFAFEYARNNHRSNVTAVHKANIMRMSDGLFLQKCREVAESCKDIKFNEMYLDTVCLNMVQDPSQFDVLVMPNLFGDILSDLCAGLIGGLGVTPSGNIGANGVAIFESVHGTAPDIAGKDMANPTALLLSAVMMLRHMGLFDHAARIEAACFATIKDGKSLTKDLGGNAKCSDFTEEICRRVKDLD chain 2: FSEQTIPPSAKYGGRHTVTMIPGDGIGPELMLHVKSVFRHACVPVDFEEVHVSSNADEEDIRNAIMAIRRNRVALKGNIETNHNLPPSHKSRNNILRTSLDLYANVIHCKSLPGVVTRHKDIDILIVRENTEGEYSSLEHESVAGVVESLKIITKAKSLRIAEYAFKLAQESGRKKVTAVHKANIMKLGDGLFLQCCREVAARYPQITFENMIVDNTTMQLVSRPQQFDVMVMPNLYGNIVNNVCAGLVGGPGLVAGANYGHVYAVFETATRNTGKSIANKNIANPTATLLASCMMLDHLKLHSYATSIRKAVLASMDNENMHTPDIGGQGTTSEAIQDVIRHIRVINGRAVEA |  |  | 14.5 ± 0.9 mM | 46 ± 2 M⁻¹ s⁻¹
4 | αγ heterodimer of human NAD-IDH (IDH3) (Homo sapiens; P51553:R311A) (protein, alpha and gamma co-expressed in E. coli BL21(DE3) from pQlinkN; gamma C-terminal TEV-His6, His6 cleaved by TEV; 80 kDa heterodimer (dimer of heterodimers at high concentration)) chain 1: TGGVQTVTLIPGDGIGPEISAAVMKIFDAAKAPIQWEERNVTAIQGPGGKWMIPSEAKESMDKNKMGLKGPLKTPIAAGHPSMNLLLRKTFDLYANVRPCVSIEGYKTPYTDVNIVTIRENTEGEYSGIEHVIVDGVVQSIKLITEGASKRIAEFAFEYARNNHRSNVTAVHKANIMRMSDGLFLQKCREVAESCKDIKFNEMYLDTVCLNMVQDPSQFDVLVMPNLYGDILSDLCAGLIGGLGVTPSGNIGANGVAIFESVHGTAPDIAGKDMANPTALLLSAVMMLRHMGLFDHAARIEAACFATIKDGKSLTKDLGGNAKCSDFTEEICRRVKDLD chain 2: FSEQTIPPSAKYGGRHTVTMIPGDGIGPELMLHVKSVFRHACVPVDFEEVHVSSNADEEDIRNAIMAIRRNRVALKGNIETNHNLPPSHKSRNNILRTSLDLYANVIHCKSLPGVVTRHKDIDILIVRENTEGEYSSLEHESVAGVVESLKIITKAKSLRIAEYAFKLAQESGRKKVTAVHKANIMKLGDGLFLQCCREVAARYPQITFENMIVDNTTMQLVSRPQQFDVMVMPNLYGNIVNNVCAGLVGGPGLVAGANYGHVYAVFETATANTGKSIANKNIANPTATLLASCMMLDHLKLHSYATSIRKAVLASMDNENMHTPDIGGQGTTSEAIQDVIRHIRVINGRAVEA | 19.3 ± 1.0 mM | 210 ± 10 M⁻¹ s⁻¹ |  | 
5 | αγ heterodimer of human NAD-IDH (IDH3) (Homo sapiens; P51553:Y276F) (protein, alpha and gamma co-expressed in E. coli BL21(DE3) from pQlinkN; gamma C-terminal TEV-His6, His6 cleaved by TEV; 80 kDa heterodimer (dimer of heterodimers at high concentration)) chain 1: TGGVQTVTLIPGDGIGPEISAAVMKIFDAAKAPIQWEERNVTAIQGPGGKWMIPSEAKESMDKNKMGLKGPLKTPIAAGHPSMNLLLRKTFDLYANVRPCVSIEGYKTPYTDVNIVTIRENTEGEYSGIEHVIVDGVVQSIKLITEGASKRIAEFAFEYARNNHRSNVTAVHKANIMRMSDGLFLQKCREVAESCKDIKFNEMYLDTVCLNMVQDPSQFDVLVMPNLYGDILSDLCAGLIGGLGVTPSGNIGANGVAIFESVHGTAPDIAGKDMANPTALLLSAVMMLRHMGLFDHAARIEAACFATIKDGKSLTKDLGGNAKCSDFTEEICRRVKDLD chain 2: FSEQTIPPSAKYGGRHTVTMIPGDGIGPELMLHVKSVFRHACVPVDFEEVHVSSNADEEDIRNAIMAIRRNRVALKGNIETNHNLPPSHKSRNNILRTSLDLYANVIHCKSLPGVVTRHKDIDILIVRENTEGEYSSLEHESVAGVVESLKIITKAKSLRIAEYAFKLAQESGRKKVTAVHKANIMKLGDGLFLQCCREVAARYPQITFENMIVDNTTMQLVSRPQQFDVMVMPNLFGNIVNNVCAGLVGGPGLVAGANYGHVYAVFETATRNTGKSIANKNIANPTATLLASCMMLDHLKLHSYATSIRKAVLASMDNENMHTPDIGGQGTTSEAIQDVIRHIRVINGRAVEA | 14.8 ± 0.5 mM | 250 ± 10 M⁻¹ s⁻¹ |  | 
6 | αγ heterodimer of human NAD-IDH (IDH3) (Homo sapiens; P51553:D229A) (protein, alpha and gamma co-expressed in E. coli BL21(DE3) from pQlinkN; gamma C-terminal TEV-His6, His6 cleaved by TEV; 80 kDa heterodimer (dimer of heterodimers at high concentration)) chain 1: TGGVQTVTLIPGDGIGPEISAAVMKIFDAAKAPIQWEERNVTAIQGPGGKWMIPSEAKESMDKNKMGLKGPLKTPIAAGHPSMNLLLRKTFDLYANVRPCVSIEGYKTPYTDVNIVTIRENTEGEYSGIEHVIVDGVVQSIKLITEGASKRIAEFAFEYARNNHRSNVTAVHKANIMRMSDGLFLQKCREVAESCKDIKFNEMYLDTVCLNMVQDPSQFDVLVMPNLYGDILSDLCAGLIGGLGVTPSGNIGANGVAIFESVHGTAPDIAGKDMANPTALLLSAVMMLRHMGLFDHAARIEAACFATIKDGKSLTKDLGGNAKCSDFTEEICRRVKDLD chain 2: FSEQTIPPSAKYGGRHTVTMIPGDGIGPELMLHVKSVFRHACVPVDFEEVHVSSNADEEDIRNAIMAIRRNRVALKGNIETNHNLPPSHKSRNNILRTSLDLYANVIHCKSLPGVVTRHKDIDILIVRENTEGEYSSLEHESVAGVVESLKIITKAKSLRIAEYAFKLAQESGRKKVTAVHKANIMKLGAGLFLQCCREVAARYPQITFENMIVDNTTMQLVSRPQQFDVMVMPNLYGNIVNNVCAGLVGGPGLVAGANYGHVYAVFETATRNTGKSIANKNIANPTATLLASCMMLDHLKLHSYATSIRKAVLASMDNENMHTPDIGGQGTTSEAIQDVIRHIRVINGRAVEA |  |  | 10.2 ± 0.6 mM | 730 ± 40 M⁻¹ s⁻¹
7 | αγ heterodimer of human NAD-IDH (IDH3) (Homo sapiens; P51553:Y174F) (protein, alpha and gamma co-expressed in E. coli BL21(DE3) from pQlinkN; gamma C-terminal TEV-His6, His6 cleaved by TEV; 80 kDa heterodimer (dimer of heterodimers at high concentration)) chain 1: TGGVQTVTLIPGDGIGPEISAAVMKIFDAAKAPIQWEERNVTAIQGPGGKWMIPSEAKESMDKNKMGLKGPLKTPIAAGHPSMNLLLRKTFDLYANVRPCVSIEGYKTPYTDVNIVTIRENTEGEYSGIEHVIVDGVVQSIKLITEGASKRIAEFAFEYARNNHRSNVTAVHKANIMRMSDGLFLQKCREVAESCKDIKFNEMYLDTVCLNMVQDPSQFDVLVMPNLYGDILSDLCAGLIGGLGVTPSGNIGANGVAIFESVHGTAPDIAGKDMANPTALLLSAVMMLRHMGLFDHAARIEAACFATIKDGKSLTKDLGGNAKCSDFTEEICRRVKDLD chain 2: FSEQTIPPSAKYGGRHTVTMIPGDGIGPELMLHVKSVFRHACVPVDFEEVHVSSNADEEDIRNAIMAIRRNRVALKGNIETNHNLPPSHKSRNNILRTSLDLYANVIHCKSLPGVVTRHKDIDILIVRENTEGEFSSLEHESVAGVVESLKIITKAKSLRIAEYAFKLAQESGRKKVTAVHKANIMKLGDGLFLQCCREVAARYPQITFENMIVDNTTMQLVSRPQQFDVMVMPNLYGNIVNNVCAGLVGGPGLVAGANYGHVYAVFETATRNTGKSIANKNIANPTATLLASCMMLDHLKLHSYATSIRKAVLASMDNENMHTPDIGGQGTTSEAIQDVIRHIRVINGRAVEA |  |  | 8.80 ± 0.54 mM | 270 ± 10 M⁻¹ s⁻¹
8 | αγ heterodimer of human NAD-IDH (IDH3) (Homo sapiens; P51553:R167A) (protein, alpha and gamma co-expressed in E. coli BL21(DE3) from pQlinkN; gamma C-terminal TEV-His6, His6 cleaved by TEV; 80 kDa heterodimer (dimer of heterodimers at high concentration)) chain 1: TGGVQTVTLIPGDGIGPEISAAVMKIFDAAKAPIQWEERNVTAIQGPGGKWMIPSEAKESMDKNKMGLKGPLKTPIAAGHPSMNLLLRKTFDLYANVRPCVSIEGYKTPYTDVNIVTIRENTEGEYSGIEHVIVDGVVQSIKLITEGASKRIAEFAFEYARNNHRSNVTAVHKANIMRMSDGLFLQKCREVAESCKDIKFNEMYLDTVCLNMVQDPSQFDVLVMPNLYGDILSDLCAGLIGGLGVTPSGNIGANGVAIFESVHGTAPDIAGKDMANPTALLLSAVMMLRHMGLFDHAARIEAACFATIKDGKSLTKDLGGNAKCSDFTEEICRRVKDLD chain 2: FSEQTIPPSAKYGGRHTVTMIPGDGIGPELMLHVKSVFRHACVPVDFEEVHVSSNADEEDIRNAIMAIRRNRVALKGNIETNHNLPPSHKSRNNILRTSLDLYANVIHCKSLPGVVTRHKDIDILIVAENTEGEYSSLEHESVAGVVESLKIITKAKSLRIAEYAFKLAQESGRKKVTAVHKANIMKLGDGLFLQCCREVAARYPQITFENMIVDNTTMQLVSRPQQFDVMVMPNLYGNIVNNVCAGLVGGPGLVAGANYGHVYAVFETATRNTGKSIANKNIANPTATLLASCMMLDHLKLHSYATSIRKAVLASMDNENMHTPDIGGQGTTSEAIQDVIRHIRVINGRAVEA |  |  | 8.57 ± 0.42 mM | 260 ± 10 M⁻¹ s⁻¹

Source: publication PMC5241874
